These results are taken from US20250002610A1 (Genmab, published 2025).

Assay [1] has as its target T1, human DR4 (Death Receptor 4), cell surface expressed on human tumor cell lines (human, UniProt O00220 24-468).
T1 construct: also called TNFRSF10A; TRAIL-R1
T1 sequence: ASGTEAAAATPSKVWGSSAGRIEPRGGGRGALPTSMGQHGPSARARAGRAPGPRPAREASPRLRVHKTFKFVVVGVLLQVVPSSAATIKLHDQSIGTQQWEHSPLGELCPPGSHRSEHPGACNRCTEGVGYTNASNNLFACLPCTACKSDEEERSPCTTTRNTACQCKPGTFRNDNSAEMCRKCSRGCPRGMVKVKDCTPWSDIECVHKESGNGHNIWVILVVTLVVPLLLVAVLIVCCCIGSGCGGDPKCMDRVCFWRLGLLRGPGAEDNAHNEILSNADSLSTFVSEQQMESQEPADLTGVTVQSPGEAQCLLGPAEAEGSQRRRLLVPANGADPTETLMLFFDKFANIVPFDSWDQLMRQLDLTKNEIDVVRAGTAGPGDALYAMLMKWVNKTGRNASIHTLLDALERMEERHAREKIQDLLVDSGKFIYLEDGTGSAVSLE
The assay is described as follows: flow cytometry, DLD-1 cells, n = 3. On the technique in general: A flow cytometer gives signals particle by particle.

In assay [2] the target is T2, cynomolgus monkey FAPα on Expi293F cells (cynomolgus monkey (Macaca fascicularis), UniProt Q12884 1-760 (human entry)).
T2 sequence: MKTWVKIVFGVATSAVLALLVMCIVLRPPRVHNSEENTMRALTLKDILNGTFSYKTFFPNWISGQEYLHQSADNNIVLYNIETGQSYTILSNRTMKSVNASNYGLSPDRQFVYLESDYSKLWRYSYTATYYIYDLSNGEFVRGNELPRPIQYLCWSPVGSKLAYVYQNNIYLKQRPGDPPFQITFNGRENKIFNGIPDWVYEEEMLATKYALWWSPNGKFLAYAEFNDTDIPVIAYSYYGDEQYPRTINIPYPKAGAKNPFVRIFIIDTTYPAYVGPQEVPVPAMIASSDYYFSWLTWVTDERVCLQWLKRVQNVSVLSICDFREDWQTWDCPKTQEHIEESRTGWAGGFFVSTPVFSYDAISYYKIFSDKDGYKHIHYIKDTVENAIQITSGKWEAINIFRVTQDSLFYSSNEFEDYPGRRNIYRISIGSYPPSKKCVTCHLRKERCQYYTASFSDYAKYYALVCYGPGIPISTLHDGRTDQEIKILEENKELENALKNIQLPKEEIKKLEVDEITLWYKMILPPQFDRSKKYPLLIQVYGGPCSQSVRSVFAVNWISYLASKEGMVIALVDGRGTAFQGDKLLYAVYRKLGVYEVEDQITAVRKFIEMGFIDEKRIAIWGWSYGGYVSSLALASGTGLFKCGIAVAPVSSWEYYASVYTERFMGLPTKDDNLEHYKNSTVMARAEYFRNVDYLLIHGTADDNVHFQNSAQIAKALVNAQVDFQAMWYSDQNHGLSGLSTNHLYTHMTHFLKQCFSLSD
Nature of the assay: flow cytometry, Expi293F cells expressing cynomolgus monkey FAPα, average ± SEM. The protocol: (§1) Binding of BisG1-FAPα-FERL/DR4-FERR, BisG1-FAPα-FEAL/b12-FEAR and IgG1-FAPα-FERL to FAPα of species commonly used for nonclinical toxicology studies was assessed by flow cytometry using Expi293F cells transiently expressing FAPα from different animal species. IgG1-b12 was included as negative control.
(§2) Expi293F cells expressing recombinant FAPα from various species (human, cynomolgus monkey, dog, pig, rat or mouse) were seeded (20,000 cells/well) in 96-Well round bottom plates (Greiner Bio-one, Cat #650101). Antibody dilutions were prepared using FACS buffer, consisting of PBS (Capricorn Scientific, Cat #PBS-10XA, diluted to 1×PBS in distilled water)+1% BSA (Roche, Cat #10735086001)+0.02% Sodium Azide (Bio-World, Cat #41920044-3). Plates were centrifuged, supernatant was removed, and cells were resuspended in 100 μL of antibody dilutions (concentration range 30-0.00017 μg/mL with three-fold serial dilutions using FACS buffer) of BisG1-FAPα-FERL/DR4-FERR, BisG1-FAPα-FEAL/b12-FEAR, IgG1-FAPα-FERL and IgG1-b12 and incubated for 30 min at 4° C. […] After 30 min incubation at 4° C., cells were washed with FACS buffer and resuspended in FACS buffer supplemented with TO-PRO-3 Iodide viability marker (Invitrogen, Cat #T3605, diluted 1:4,000). Antibody binding to viable cells (gMFI of PE on TO-PRO-3 negative cells) was analyzed by flow cytometry on a FACS Celesta and FACS_Diva software (first two experiments) or iQue® 3 and FlowJo software (last experiment). gMFI was determined and visualized using GraphPad Prism. Binding curves were analyzed using nonlinear regression analysis. The concentration (pg/mL) at which 50% of the maximal effect was observed (EC₅₀) was derived from the fitted curves.

Assay [3] deals with T3, human FAPα (Fibroblast activation protein alpha), cell surface expressed (human, UniProt Q12884 1-760).
T3 construct: Endogenous on human lung fibroblasts and CAFs
T3 sequence: T2 sequence with P29S, F261V, D417E
Nature of the assay: flow cytometry, Expi293F cells expressing human FAPα, average ± SEM. The protocol:
as §1, §2

The term EC50 denotes the concentration needed to bring the measured effect to its halfway point.

Numbering of substitutions follows the chain as printed.

B1: BisG1-FAPα-FERL/DR4-FERR (bispecific antibody, human IgG1, kappa, lambda)
heavy 1: EVQLLESGGGLVQPGGSPRLSCEASGFTFSSYALSWVRQAPGKGLEWVSAISGSGGGRYYADSVKGRFTISRDNSKNTLFLQMNSLRAEDTAVYYCAKEGYSSSGTYWDHWGQGTLVTVSSASTKGPSVFPLAPSSKSTSGGTAALGCLVKDYFPEPVTVSWNSGALTSGVHTFPAVLQSSGLYSLSSVVTVPSSSLGTQTYICNVNHKPSNTKVDKRVEPKSCDKTHTCPPCPAPEFERGPSVFLFPPKPKDTLMISRTPEVTCVVVDVSHEDPEVKFNWYVDGVEVHNAKTKPREEQYNSTYRVVSVLTVLHQDWLNGKEYKCKVSNKALPAPIEKTISKAKGQPREPQVYTLPPSREEMTKNQVSLTCLVKGFYPSDIAVEWESNGQPENNYKTTPPVLDSDGSFLLYSKLTVDKSRWQQGNVFSCSVMHEALHNHYTQKSLSLSPG
light 1: AIQMTQSPSSVSASVGDRVTITCRASQGVSSWLAWYQQKPGRAPKLLIYVASTLQSGVPSRFSGSGSGTDFTLTINSLQPEDFATYYCQQANSFPPTFGQGTRLEMKRTVAAPSVFIFPPSDEQLKSGTASVVCLLNNFYPREAKVQWKVDNALQSGNSQESVTEQDSKDSTYSLSSTLTLSKADYEKHKVYACEVTHQGLSSPVTKSFNRGEC
heavy 2: QVQLQESGPGLVKPSGTLSLTCAVSGGSISSYSWWSWIRQPPGKGLEWIGELYHSGSTNYNPSLKSRVTISVDKSKNQFSLKLRSVTAADTAVYYCVRGVATIDYWGQGTLVTVSSASTKGPSVFPLAPSSKSTSGGTAALGCLVKDYFPEPVTVSWNSGALTSGVHTFPAVLQSSGLYSLSSVVTVPSSSLGTQTYICNVNHKPSNTKVDKRVEPKSCDKTHTCPPCPAPEFERGPSVFLFPPKPKDTLMISRTPEVTCVVVDVSHEDPEVKFNWYVDGVEVHNAKTKPREEQYNSTYRVVSVLTVLHQDWLNGKEYKCKVSNKALPAPIEKTISKAKGQPREPQVYTLPPSREEMTKNQVSLTCLVKGFYPSDIAVEWESNGQPENNYKTTPPVLDSDGSFFLYSRLTVDKSRWQQGNVFSCSVMHEALHNHYTQKSLSLSPG
light 2: QSALTQPPSASGSPGQSVTISCTGTSSDVGGYNFVSWYQQDPGKAPKLLIYEVTKRPSGVPDRFSGSKSGNTASLTVSGLQAEDEADYYCSSYAGSNNVMFGGGTKLTVLGQPKAAPSVTLFPPSSEELQANKATLVCLISDFYPGAVTVAWKADSSPVKAGVETTTPSKQSNNKYAASSYLSLTPEQWKSHRSYSCQVTHEGSTVEKTVAPTECS
notes: Human IgG1 bispecific made by controlled Fab-arm exchange of IgG1-FAPα-FERL and IgG1-DR4-FERR; monovalent for FAPα and for DR4; also called GEN1057
Take B1: the half-maximal effective concentration (EC50) in assay [1] is 0.67 µg/mL; in assay [2] it was 0.25 µg/mL; in assay [3] it was 0.24 µg/mL.
